Measurements as given in paper PMC7949043, “Allosteric regulation of the nickel-responsive NikR transcription factor from Helicobacter pylori”.

T1: HpNikR (Helicobacter pylori G27 (strain from …, UniProt A1YSQ9 1-148))
T1 sequence: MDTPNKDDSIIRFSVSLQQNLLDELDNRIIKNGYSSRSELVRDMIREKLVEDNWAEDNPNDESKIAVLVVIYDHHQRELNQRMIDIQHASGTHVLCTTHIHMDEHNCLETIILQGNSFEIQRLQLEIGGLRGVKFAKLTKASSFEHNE

B1: ureA-F (32 bp ureA promoter) (dsDNA)
DNA 1: ATATAACACTAATTCATTTTAAATAATAATTA
DNA 2: TAATTATTATTTAAAATGAATTAGTGTTATAT
B2: ureA-perf-F (32 bp) (dsDNA)
DNA 1: ATATATTATTAATTCATTTTAAATAATAATTA
DNA 2: TAATTATTATTTAAAATGAATTAATAATATAT

Tests used:
HpNikR [1] = molecular target: T1, HpNikR; assay: fluorescence anisotropy; Ni(II) 1.2 eq per monomer; Hill n = 1.8 ± 0.1; FA: 5 nM labeled DNA, 20 mM Tris pH 7.6, 100 mM NaCl, 3 mM MgSO4, temperature not stated (metal loading at room temperature); 19F-NMR: same buffer with 10% D2O, 400-900 uM monomer, DNA 1 eq per tetramer, variable temperature from 4 C; details: protein: recombinant; tags: none; chain copies: 4; label: fluorescein at central T in the spacer of strand 1 (printed [F] after T14); blunt
HpNikR [2] = molecular target: T1, HpNikR; assay: fluorescence anisotropy; Ni(II) 1.2 eq per monomer; Hill n = 1.9 ± 0.2; FA: 5 nM labeled DNA, 20 mM Tris pH 7.6, 100 mM NaCl, 3 mM MgSO4, temperature not stated (metal loading at room temperature); 19F-NMR: same buffer with 10% D2O, 400-900 uM monomer, DNA 1 eq per tetramer, variable temperature from 4 C; details: protein: recombinant; tags: none; chain copies: 4; label: fluorescein at central T in the spacer of strand 1 (printed [F] after T14); blunt

Row | Binder | Kd (HpNikR [1]) [nM] | Kd (HpNikR [2]) [nM]
1 | B1 | 4.5 ± 0.6 | –
2 | B2 | – | 4.7 ± 0.4
